Experimental data from paper PMC4188031.

Assays:
Experiment in all cases: SPR (ProteOn XPR36, GLC chip), co-injection mode with pH shift
Conditions in all cases: pH 7.4; 25°C (stated for the immobilisation step; not restated for the binding runs); 150 mM NaCl (plus 20 mM Na-phosphate); PBS-TE: 20 mM Na-phosphate; association at pH 6.0, dissociation at pH 7.4
[1] = molecular target: B21M anti-RSV IgG1, wild-type Fc (mAb WT) (UniProt P01857)
[2] = molecular target: B21M anti-RSV IgG1 N434A N434A (EU numbering) (UniProt P01857)
[3] = molecular target: B21M anti-RSV IgG1 N434Y N434Y (EU numbering) (UniProt P01857)

With neonatal Fc receptor (rat FcRn, rFcRn) as the substance, how does the off-rate (koff) after pH shift 6.0 to 7.4 [1] read?
The off-rate (koff) after pH shift 6.0 to 7.4 was 0.07 1/s.

What about the off-rate (koff) after pH shift 6.0 to 7.4 [2] of the same substance?
The off-rate (koff) after pH shift 6.0 to 7.4 was 0.09 1/s.

And the off-rate (koff) after pH shift 6.0 to 7.4 [3]?
Its off-rate (koff) after pH shift 6.0 to 7.4 is 0.02 1/s.
